Data from paper PMC3197879.

Target: YFP-PAX5-Foldon (not stated | phage T4) (UniProt P10104)
Test: SEC

## YFP-PAX5-Foldon (from UniProt P10104 458-484)
  stoichiometry N: 3
